Test [1] has as its target human macrophage migration-inhibitory factor (MIF) (human) (UniProt P14174). The experiment in a line: fluorescence spectroscopic titration of Alexa-MIF with increasing ngm-L5 [panel D].
The target is the same in test [2]. The experiment in a line: cell-based or functional assay.
For test [3] the target is unchanged. Nature of the test: fluorescence spectroscopic titration.
Test [4] shares this target. The experiment in a line: fluorescence spectroscopic titration, apparent Kd; Alexa-488-MIF titrated with ngm.
For test [5] the target is unchanged. The experiment in a line: fluorescence spectroscopic titration, apparent Kd; Fluos-ngm titrated with MIF.
Test [6] concerns the target CXCL12 (human) (UniProt P48061). The experiment in a line: fluorescence spectroscopic titration, apparent KD; Fluos-labelled peptide (5 nM) titrated with CXCL12.
In test [7] the target is msR4M-L1 (CXCR4-ECL1[97-110]-6-Ahx-12-Ado-ECL2[182-196]) (human). The experiment in a line: fluorescence spectroscopic titration, self-assembly; Fluos-msR4M-L1 titrated with unlabelled msR4M-L1.

Sequence of human macrophage migration-inhibitory factor (MIF) (human) (P14174 2-115 limits assumed): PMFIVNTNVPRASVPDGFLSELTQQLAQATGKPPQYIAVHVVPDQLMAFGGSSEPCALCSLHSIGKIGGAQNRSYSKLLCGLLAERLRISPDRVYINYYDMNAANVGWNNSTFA
Sequence of CXCL12 (human) (P48061 22-89 limits assumed): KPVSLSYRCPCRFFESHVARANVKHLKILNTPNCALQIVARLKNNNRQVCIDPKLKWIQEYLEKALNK

One may read the EC50 (read off the curve) as the concentration giving half of the maximal effect. A higher EC50 (read off the curve) goes with a need for much substance. For “msR4M-L5 ([ECL1(102-110)]-O1pen-O1pen-[ECL2(187-195)]) (designed binder)”, in test [1], the EC50 (read off the curve) came out at 40 nM. Also, the Atherogenic inhibitory activity (Dil-LDL uptake) (% of full-length msR4M-L1) in test [2] amounted to 30. In test [2], the IC50 of inhibition of MIF-triggered Dil-oxLDL uptake (foam cell assay) was 69.7 nM. Besides, the results for the Kd in test [3], in test [4] and in test [5] were 14 nM, 41.8 nM and 14.3 nM, respectively.
“msR4M-L4 ([ECL1(102-110)]-8 Aoc-[ECL2(187-195)]) (designed binder)”: in test [2], the Atherogenic inhibitory activity (Dil-LDL uptake) (% of full-length msR4M-L1) was found to be 80. Besides, the results for the Kd in test [3], in test [4] and in test [5] were 12 nM, 43.2 nM and 11.9 nM, respectively.
“msR4M-L3 ([ECL1(102-110)]-6 Ahx-12 Ado-[ECL2(187-195)]) (designed binder)” showed an Atherogenic inhibitory activity (Dil-LDL uptake) (% of full-length msR4M-L1) in test [2] of 80. Further, the Kd in test [3] is 14 nM; in test [4], 11.7 nM; in test [5], 44.4 nM.
Turning to “msR4M-L1 (CXCR4-ECL1[97-110]-6-Ahx-12-Ado-ECL2[182-196]) (designed binder)”, the values for the Kd in test [6] and in test [7] were over 5000 nM and 142 nM, respectively.

These data come from US20230242616A1, “CHEMOKINE-SELECTIVE CXCR4 ECTODOMAIN-DERIVED (POLY)PEPTIDE” (Ludwig-Maximilians-Universität München, priority 2020, published 2023).
